Data published in publication PMC8181125.

Key:
Details in all cases: glycan lost; control: wild type
[1] = Western blot of full-length PDGF-C in conditioned medium
[2] = Western blot of core domain in conditioned medium
[3] = immunofluorescence with Golgi marker TGN46, HEK293A
[4] = immunofluorescence colocalisation with ER marker ERP72, HEK293A
[5] = Western blot of transfected HEK293A cell lysates

| Substance | expression_or_secretion [1] | other: proteolytic processing [2] | localisation_or_trafficking [3] | localisation_or_trafficking [4] | expression_or_secretion [5] |
| --- | --- | --- | --- | --- | --- |
| PDGF-C (full-length, PC-FL): N25A | no change | no change | no change | no change | no change |
| PDGF-C (full-length, PC-FL): N25A + N55A | no change |  |  |  | no change |
| PDGF-C (full-length, PC-FL): N25A + N254A | no change | abolishes |  |  | no change |
| PDGF-C (full-length, PC-FL): N55A | no change | no change | no change | no change | no change |
| PDGF-C (full-length, PC-FL): N55A + N254A | no change | abolishes |  |  | no change |
| PDGF-C (full-length, PC-FL): N254A | no change |  | no change | no change | no change |
| PDGF-C (full-length, PC-FL): triple NA mutant | no change | abolishes |  |  | no change |
